These results are taken from patent publication US20200199207A1 (MABYLON, published 2020).

What all share (test): ELISA, antigen-coated plate
On the technique in general: ELISA stands for enzyme-linked immunosorbent assay.

One test deals with T1, nAra h 2 (peanut, UniProt Q6PSU2 22-172).
T1 construct: Bought natural allergen; also called naturally extracted Ara h 2
T1 sequence (looked up): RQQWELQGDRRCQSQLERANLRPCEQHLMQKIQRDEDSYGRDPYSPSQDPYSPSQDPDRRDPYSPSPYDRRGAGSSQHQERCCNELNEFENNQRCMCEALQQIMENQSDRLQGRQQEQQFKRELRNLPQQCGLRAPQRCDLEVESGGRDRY
The protocol:
(§1) EC50 binding of exemplary anti-peanut antibodies of the present invention to peanut allergens or peanut extract, was determined by ELISA. Serial dilutions of MAbs (from 1000 ng/ml down to 0.0169 ng/ml) were incubated for 2 hours with antigen-coated plates (coating overnight at 4° C. or 1 h at 37° C. with 1 μg/ml antigen in PBS, followed by wash out and blocking with 2% BSA in PBS). The plates were subsequently washed and binding of MAbs was detected with anti-human HRP-conjugated Fc-gamma-specific secondary antibody (Jackson ImmunoResearch, West Grove, Pa., USA). Concentrations of MAb resulting in half of maximal binding to respective antigens (EC50, ng/ml) were calculated using GraphPad Prism 5 software on sigmoidal dose-response curves (variable slope, 4 parameters) obtained by plotting the log of the concentration versus OD450 nm measurements; for the results see FIG. 3 and table 2.

The next test concerns the target T2, nAra h 3 (peanut).
T2 construct: Bought natural allergen; also called naturally extracted Ara h 3
The protocol:
as §1

The next test deals with T3, nAra h 1 (peanut, UniProt P43238 85-626).
T3 construct: Bought natural allergen; also called naturally extracted Ara h 1
T3 sequence (looked up): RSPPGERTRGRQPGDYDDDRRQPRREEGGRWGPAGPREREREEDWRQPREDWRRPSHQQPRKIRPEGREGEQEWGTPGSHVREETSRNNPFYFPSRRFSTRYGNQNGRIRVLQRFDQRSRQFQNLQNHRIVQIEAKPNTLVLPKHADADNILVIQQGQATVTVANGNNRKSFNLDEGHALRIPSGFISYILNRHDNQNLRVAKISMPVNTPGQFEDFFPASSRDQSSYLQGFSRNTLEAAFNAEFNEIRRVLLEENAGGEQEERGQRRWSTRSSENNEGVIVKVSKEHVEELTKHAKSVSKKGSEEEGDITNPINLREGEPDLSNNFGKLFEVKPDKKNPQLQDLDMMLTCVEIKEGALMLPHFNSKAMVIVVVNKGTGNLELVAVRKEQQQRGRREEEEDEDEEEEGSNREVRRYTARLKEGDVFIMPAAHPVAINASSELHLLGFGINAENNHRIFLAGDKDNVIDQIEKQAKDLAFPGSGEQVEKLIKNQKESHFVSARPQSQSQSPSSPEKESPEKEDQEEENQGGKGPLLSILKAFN
As for the experimental part: as §1

A further test deals with T4, nAra h 6 (peanut, UniProt Q647G9 22-145).
T4 construct: Bought natural allergen; also called naturally extracted Ara h 6
T4 sequence (looked up): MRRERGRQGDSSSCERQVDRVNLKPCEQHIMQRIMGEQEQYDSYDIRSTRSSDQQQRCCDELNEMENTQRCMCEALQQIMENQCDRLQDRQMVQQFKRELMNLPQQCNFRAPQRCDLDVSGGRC
As for the experimental part:
as §1

B1: hm4B2 (antibody, V domains shown)
VH: QVQLQEAGPRLVKPSQTLSVTCTVSGASITIGGYYWSWIRQHPGKGLEWMGYIYSNGRTYYNPSLKSRIAMSIDTSKNQFSLKLTSVTAADTAIYFCAREAWETPLWGQGTLITVSS
VL: DIQMTQSPSSLSASVGDRVTITCQANQDIVNSLNWFQHKPGTAPKVLIYDASKLETGVPSRFSGSGSGTHFTFTISGLQPEDFATYFCQQYENLPHTFGQGTKLEIR
notes: also called 4B2 with mouse Fc; hmMAb 4B2
As to B1, a half-maximal effect in the test with nAra h 2 (EC50) was put at 0.0102 mg/L.

B2: hm32B10 (antibody, V domains shown)
VH: QVQLVQSGAEVKKPGASVKVSCRASGYIFRNFDINWVRQATGQGLEWMGWMSPKSGDTGYAQKFQGRVTMTRDTSINTAYMELSSLTSEDSAVYYCARGVDGTNWGQGTRVTVSS
VL: DIVMTQSPDSLGVSLGERATISCKSSQSILDNSNNKNFIAWFQQKPGQPPKLLIYWASARESGVPDRFSGSGSGTEFTLTINSLQAEDVAVYYCYQYYSTPHTFGQGTKLDLR
notes: also called 32B10 with mouse Fc; hmMAb 32B10
In the test with nAra h 2, B2 registered an EC50 of 0.0099 mg/L. This EC50 and that of the molecule before are within 1.5-fold of each other.

B3: hm12G10 (antibody, V domains shown)
VH: EVQLLESGGRLLRPGGSLSLSCVASGFYFGDFGMSWVRQVPGKGLEWVSGIDWSGRSTGYVDSMKGRLTISRDNDKSSLYLQMNDLRGEDTAVYYCARVGRLCSGDSCDSMGAFDLWGQGTMVTVSS
VL: DIQLTQSPSTLSASIGDSVTITCRASQNIDNWLAWYQQKPGKAPRLLIYKASSLGSGVSSKFRGSGFGTEFTLTITSLQPDDFATYYCQKSNGYSRTFGQGTKVDIK
notes: also called 12G10 with mouse Fc; hmMAb 12G10
For the molecule B3, the EC50 with nAra h 3 was found to be 0.0368 mg/L; with nAra h 1, 0.195 mg/L; in the test with nAra h 6, 0.0278 mg/L; with nAra h 2 it was 0.0067 mg/L.

B4: hm37D5 (antibody, V domains shown)
VH: EEQLVESGGRLLRPGESLSLSCAAVGFNFGDFGMAWVRQPPGKGLEWVAGINWSGHSTGFVDSMKGRLTISRDSAKSSLFLQMNSLRGEDTAVYYCARVGRLCSGDICDSMGAFDLWGQGTMVTVSS
VL: DIQMTQSPSTLSASIGDRVTITCRASQTIDNWLAWYQQRPGKAPKLLIYQASSLQSGVSSRFRGSGSGTEFTLTITSLQPDDFATYYCQKSNGYSRTFGQGTKVEIK
notes: also called 37D5 with mouse Fc; hmMAb 37D5
Turning to B4, the concentration giving a half-maximal response (EC50) with nAra h 3 stood at 0.0723 mg/L; with nAra h 1, 0.115 mg/L; with nAra h 6, 0.034 mg/L; with nAra h 2, 0.0052 mg/L.

B5: hm2F8 (antibody, V domains shown)
VH: EVQLVESGGGLVKPGGSLRLSCAASGFIFSDYNMNWVRQAPGKGLEWVSSITRSSRTIYYADSVKGRFTISRDNAKNSLHLQMNSLRDADTAVYYCAREDFDVSTGPYYMDVWGNGTTVIVSS
VL: EIVLTQSPGTLSLSPGERATLSCRASQSVSNMFLVWYQQKPGQAPRLLMYGASTRATDIPDRFSGSGSGTDFTLTISRLEPEDFAVYYCQQNGNSPYTFGQGTKLEIK
notes: also called 2F8 with mouse Fc; hmMAb 2F8
In the case of B5, the concentration giving a half-maximal response (EC50) in the test with nAra h 2 is 0.0087 mg/L.

By EC50 is commonly meant the concentration giving half of the maximal effect. A higher EC50 goes with weaker potency.
